Experimental data published in PMC3526858 (Biochemical Journal, 2012).

B1: EssB-C, C-terminal fragment of EssB (residues 257-444) (domain or fragment, S. aureus subsp. aureus)
chain: GASERIEKGYQAFVKDDYTQVLNTYDDLDGKKLDKEALYIYAKSYIQTNKQGLEKDKKENLLNNVTPNSNKDYLLYWMELGQGHLDEAINIATYLDDNDITKLALINKLNEIKNNGDLSNDKRSEETKKYNDKLQDILDKEKQVKDEKAKSEEEKAKAKDEKLKQQEENEKKQKEQAQKDKEKRQEAERKK
B2: Full-length EssB (S. aureus), detergent-solubilised (natural protein, S. aureus subsp. aureus)
chain: GASMVKNHNPKNEMQDMLTPLDAEEAAKTKLRLDMREIPKSSIKPEHFHLMYLLEQHSPYFIDAELTELRDSFQIHYDINDNHTPFDNIKSFTKNEKLRYLLNIKNLEEVNRTRYTFVLAPDELFFTRDGLPIAKTRGLQNVVDPLPVSEAEFLTRYKALVICAFNEKQSFDALVEGNLELHKGTPFETKVIEAATLDLLTAFLDEQYQKQEQDYSQNYAYVRKVGHTVFKWVAIGMTTLSVLLIAFLAFLYFSVMKHNERIEKGYQAFVKDDYTQVLNTYDDLDGKKLDKEALYIYAKSYIQTNKQGLEKDKKENLLNNVTPNSNKDYLLYWMELGQGHLDEAINIATYLDDNDITKLALINKLNEIKNNGDLSNDKRSEETKKYNDKLQDILDKEKQVKDEKAKSEEEKAKAKDEKLKQQEENEKKQKEQAQKDKEKRQEAERKK

Experiments:
[1] = target: EssB-N, N-terminal cytoplasmic fragment of EssB (residues 12-226) (S. aureus subsp. aureus) (UniProt Q2G185); assay: native gel or EMSA
[2] = target: EssBΔC, EssB truncated by 43 C-terminal residues, detergent-solubilised (S. aureus subsp. aureus) (UniProt Q2G185); assay: SEC
native gel or EMSA = target: the molecule itself; assay: native gel or EMSA

Molecule | stoichiometry N (native gel or EMSA) | further results
EssB-N, N-terminal cytoplasmic fragment of EssB (residues 12-226) (from UniProt Q2G185 12-226) (domain or fragment) |  | stoichiometry N [1]: 2
EssBΔC, EssB truncated by 43 C-terminal residues, detergent-solubilised (from UniProt Q2G185 1-400) (domain or fragment) |  | stoichiometry N [2]: 2
B1 | 2 | 
B2 | 2 | 
